Each block holds one molecule with its values, some of them ahead of it.
Legend:
YY1 = YY1 (UniProt P25490); assay: co-IP; conditions: reference: HA-OTUD3 wild type; sites S326
[1] = target: T1, Myc-tagged PLK1 (wild-type) (UniProt P53350 1-603); assay: pull-down; GST or GST-OTUD3 (E. coli) incubated overnight at 4 °C with purified Flag-YY1 or Myc-PLK1 from HEK-293T; Glutathione-Sepharose 4B beads; immunoblot with anti-Flag or anti-Myc; conditions: both partners purified
T1 construct: Polo-like kinase 1 (PLK1), wild type, cloned into pCDNA3.1-CMV-Myc-C; The vector name pCDNA3.1-CMV-Myc-C may mean a C-terminal tag; also called Myc-PLK1; source: SW480, transfected, in lysate
T1 sequence (P53350 whole entry): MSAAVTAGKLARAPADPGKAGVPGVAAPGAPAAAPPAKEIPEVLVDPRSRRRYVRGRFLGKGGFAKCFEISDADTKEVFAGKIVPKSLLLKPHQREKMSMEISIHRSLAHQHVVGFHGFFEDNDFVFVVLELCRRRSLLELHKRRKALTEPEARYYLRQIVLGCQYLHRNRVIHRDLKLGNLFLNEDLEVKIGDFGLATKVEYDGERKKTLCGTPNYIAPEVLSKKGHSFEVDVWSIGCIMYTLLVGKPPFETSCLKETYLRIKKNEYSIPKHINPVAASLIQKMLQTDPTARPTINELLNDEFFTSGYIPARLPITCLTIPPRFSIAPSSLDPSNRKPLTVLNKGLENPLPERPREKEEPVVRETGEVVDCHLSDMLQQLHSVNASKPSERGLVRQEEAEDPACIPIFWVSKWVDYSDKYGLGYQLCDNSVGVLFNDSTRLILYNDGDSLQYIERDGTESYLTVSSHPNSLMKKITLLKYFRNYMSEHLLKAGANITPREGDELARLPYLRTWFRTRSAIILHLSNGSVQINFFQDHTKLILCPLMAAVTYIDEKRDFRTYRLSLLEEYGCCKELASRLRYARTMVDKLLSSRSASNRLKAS

[2] = target: T2, Flag-tagged YY1 (Yin Yang 1), full length, wild type (UniProt P25490 1-414); assay: as above; conditions: both partners purified
T2 construct: Yin Yang 1 (YY1), zinc finger transcription factor, full-length wild type cloned into pCDNA3.1-CMV-Flag-C; The vector name pCDNA3.1-CMV-Flag-C may mean a C-terminal tag; also called Flag-YY1; YY1-WT; source: SW480, transfected, in lysate
T2 sequence (P25490 whole entry): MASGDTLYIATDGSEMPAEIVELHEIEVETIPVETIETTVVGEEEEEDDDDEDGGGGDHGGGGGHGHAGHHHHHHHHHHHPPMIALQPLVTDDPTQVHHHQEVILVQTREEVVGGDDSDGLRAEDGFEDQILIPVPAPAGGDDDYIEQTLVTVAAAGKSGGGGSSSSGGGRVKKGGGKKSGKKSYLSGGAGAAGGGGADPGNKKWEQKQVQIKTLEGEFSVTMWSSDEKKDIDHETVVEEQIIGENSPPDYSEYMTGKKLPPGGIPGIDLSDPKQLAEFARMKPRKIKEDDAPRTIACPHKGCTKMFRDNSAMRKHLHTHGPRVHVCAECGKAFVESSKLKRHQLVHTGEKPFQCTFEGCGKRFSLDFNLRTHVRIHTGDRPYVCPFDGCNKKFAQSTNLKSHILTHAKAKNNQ

- binding against the reference (YY1): weaker
Molecule: OTUD3 (from UniProt Q5T2D3) HA-OTUD3 S326A

- binding result [1]: binds
- binding result [2]: binds
B1: GST-OTUD3 recombinant protein (enzyme, human, UniProt Q5T2D3 1-398, looked up)
chain: MSRKQAAKSRPGSGSRKAEAERKRDERAARRALAKERRNRPESGGGGGCEEEFVSFANQLQALGLKLREVPGDGNCLFRALGDQLEGHSRNHLKHRQETVDYMIKQREDFEPFVEDDIPFEKHVASLAKPGTFAGNDAIVAFARNHQLNVVIHQLNAPLWQIRGTEKSSVRELHIAYRYGEHYDSVRRINDNSEAPAHLQTDFQMLHQDESNKREKIKTKGMDSEDDLRDEVEDAVQKVCNATGCSDFNLIVQNLEAENYNIESAIIAVLRMNQGKRNNAEENLEPSGRVLKQCGPLWEEGGSGARIFGNQGLNEGRTENNKAQASPSEENKANKNQLAKVTNKQRREQQWMEKKKRQEERHRHKALESRGSHRDNNRSEAEANTQVTLVKTFAALNI
notes: OTUD3 cloned into the pGEX-6P-1 vector; also called GST-tagged OTUD3; GST-labeled OTUD3; source: Escherichia coli BL21 (DE3), purified (Glutathione Sepharose 4B beads)
